{
  "source": "the supplement of paper PMC9112550",
  "about": "“Optimization of the antimicrobial peptide Bac7 by deep mutational scanning” (BMC Biology, 2022);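 also: peptides expressed intracellularly from a pBAD plasmid library in pooled LB shake-flask culture, induced with 0.3% L-arabinose, DNA abundance read by NGS, three biological replicates, DESeq2 with apeglm shrinkage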",
  "data": [
    {"system": "Escherichia coli TOP10", "experiment": "shrunken log2 fold change of peptide-encoding DNA abundance (4.5 h post-induction vs induction); higher = less antimicrobial activity (less host growth inhibition)", "settings": "time post-induction: 4.5 h; library: site-saturation at positions 5, 18, 19, 20", "values": [
      {"sequence": "RRIRQRPPRLPRPRPRPWHWPRP", "shrunken log2 fold change": 0.107},
      {"sequence": "RRIRYRPPRLPRPRPRPLTWPRP", "shrunken log2 fold change": -0.333},
      {"sequence": "RRIRYRPPRLPRPRPRPQTQPRP", "shrunken log2 fold change": -0.275},
      {"sequence": "RRIRCRPPRLPRPRPRPAMDPRP", "shrunken log2 fold change": -0.207},
      {"sequence": "RRIRFRPPRLPRPRPRPHRSPRP", "shrunken log2 fold change": -0.222},
      {"sequence": "RRIRRRPPRLPRPRPRPEPFPRP", "shrunken log2 fold change": -0.0448},
      {"sequence": "RRIRQRPPRLPRPRPRPESEPRP", "shrunken log2 fold change": 0.219},
      {"sequence": "RRIRTRPPRLPRPRPRPFFHPRP", "shrunken log2 fold change": -0.158},
      {"sequence": "RRIRTRPPRLPRPRPRPGKFPRP", "shrunken log2 fold change": -0.0892},
      {"sequence": "RRIRPRPPRLPRPRPRPNRPPRP", "shrunken log2 fold change": 0.274},
      {"sequence": "RRIRHRPPRLPRPRPRPIPDPRP", "shrunken log2 fold change": -0.275},
      {"sequence": "RRIRERPPRLPRPRPRPFVAPRP", "shrunken log2 fold change": 0.0108},
      {"sequence": "RRIRTRPPRLPRPRPRPGRMPRP", "shrunken log2 fold change": 0.232},
      {"sequence": "RRIRERPPRLPRPRPRPDGSPRP", "shrunken log2 fold change": 0.0355},
      {"sequence": "RRIRERPPRLPRPRPRPFLMPRP", "shrunken log2 fold change": -0.209},
      {"sequence": "RRIRPRPPRLPRPRPRPPAWPRP", "shrunken log2 fold change": 0.452},
      {"sequence": "RRIRWRPPRLPRPRPRPWSPPRP", "shrunken log2 fold change": -0.0542},
      {"sequence": "RRIRERPPRLPRPRPRPELDPRP", "shrunken log2 fold change": 0.0389},
      {"sequence": "RRIRIRPPRLPRPRPRPPGRPRP", "shrunken log2 fold change": 0.336},
      {"sequence": "RRIRERPPRLPRPRPRPNFPPRP", "shrunken log2 fold change": -0.169},
      {"sequence": "RRIRLRPPRLPRPRPRPKGVPRP", "shrunken log2 fold change": 0.0368},
      {"sequence": "RRIRRRPPRLPRPRPRPCCMPRP", "shrunken log2 fold change": -0.18},
      {"sequence": "RRIRARPPRLPRPRPRPRMHPRP", "shrunken log2 fold change": 0.324},
      {"sequence": "RRIRSRPPRLPRPRPRPPFLPRP", "shrunken log2 fold change": -0.0588},
      {"sequence": "RRIRQRPPRLPRPRPRPFPKPRP", "shrunken log2 fold change": 0.0141},
      {"sequence": "RRIRDRPPRLPRPRPRPMTAPRP", "shrunken log2 fold change": -0.0214},
      {"sequence": "RRIRARPPRLPRPRPRPSNTPRP", "shrunken log2 fold change": -0.31},
      {"sequence": "RRIRYRPPRLPRPRPRPDRYPRP", "shrunken log2 fold change": -0.0871},
      {"sequence": "RRIRFRPPRLPRPRPRPWITPRP", "shrunken log2 fold change": -0.192},
      {"sequence": "RRIRSRPPRLPRPRPRPVERPRP", "shrunken log2 fold change": 0.187},
      {"sequence": "RRIRFRPPRLPRPRPRPKQHPRP", "shrunken log2 fold change": -0.176},
      {"sequence": "RRIRCRPPRLPRPRPRPKEKPRP", "shrunken log2 fold change": 0.00563},
      {"sequence": "RRIRQRPPRLPRPRPRPTGYPRP", "shrunken log2 fold change": 0.0832},
      {"sequence": "RRIRIRPPRLPRPRPRPYLGPRP", "shrunken log2 fold change": -0.279},
      {"sequence": "RRIRFRPPRLPRPRPRPDTEPRP", "shrunken log2 fold change": -0.776},
      {"sequence": "RRIRWRPPRLPRPRPRPAHVPRP", "shrunken log2 fold change": -0.0191},
      {"sequence": "RRIRYRPPRLPRPRPRPLIKPRP", "shrunken log2 fold change": -0.386},
      {"sequence": "RRIRYRPPRLPRPRPRPMEAPRP", "shrunken log2 fold change": -0.163},
      {"sequence": "RRIRIRPPRLPRPRPRPNVKPRP", "shrunken log2 fold change": -0.163},
      {"sequence": "RRIRMRPPRLPRPRPRPYPFPRP", "shrunken log2 fold change": -0.0613},
      {"sequence": "RRIRCRPPRLPRPRPRPGCTPRP", "shrunken log2 fold change": -0.279},
      {"sequence": "RRIRDRPPRLPRPRPRPTYYPRP", "shrunken log2 fold change": -0.204},
      {"sequence": "RRIRQRPPRLPRPRPRPIKNPRP", "shrunken log2 fold change": -0.186},
      {"sequence": "RRIRGRPPRLPRPRPRPRWLPRP", "shrunken log2 fold change": 0.527},
      {"sequence": "RRIRHRPPRLPRPRPRPLGQPRP", "shrunken log2 fold change": 0.0866},
      {"sequence": "RRIRIRPPRLPRPRPRPYSTPRP", "shrunken log2 fold change": -1.85},
      {"sequence": "RRIRKRPPRLPRPRPRPVYSPRP", "shrunken log2 fold change": 0.0204},
      {"sequence": "RRIRCRPPRLPRPRPRPKIGPRP", "shrunken log2 fold change": 0.0398},
      {"sequence": "RRIRNRPPRLPRPRPRPYPKPRP", "shrunken log2 fold change": 0.0245},
      {"sequence": "RRIRTRPPRLPRPRPRPTKVPRP", "shrunken log2 fold change": -0.134},
      {"sequence": "RRIRARPPRLPRPRPRPLVAPRP", "shrunken log2 fold change": 0.58},
      {"sequence": "RRIRQRPPRLPRPRPRPRNTPRP", "shrunken log2 fold change": -0.00635},
      {"sequence": "RRIRDRPPRLPRPRPRPTGRPRP", "shrunken log2 fold change": 0.134},
      {"sequence": "RRIRFRPPRLPRPRPRPFIFPRP", "shrunken log2 fold change": -0.544},
      {"sequence": "RRIRIRPPRLPRPRPRPQYWPRP", "shrunken log2 fold change": -0.361},
      {"sequence": "RRIRPRPPRLPRPRPRPSESPRP", "shrunken log2 fold change": 0.000106},
      {"sequence": "RRIRLRPPRLPRPRPRPRYFPRP", "shrunken log2 fold change": -0.319},
      {"sequence": "RRIRMRPPRLPRPRPRPQYFPRP", "shrunken log2 fold change": 0.00454},
      {"sequence": "RRIRFRPPRLPRPRPRPYYYPRP", "shrunken log2 fold change": -0.392},
      {"sequence": "RRIRNRPPRLPRPRPRPYKIPRP", "shrunken log2 fold change": -0.0214},
      {"sequence": "RRIRQRPPRLPRPRPRPDYAPRP", "shrunken log2 fold change": -0.00674},
      {"sequence": "RRIRQRPPRLPRPRPRPSNGPRP", "shrunken log2 fold change": -0.687},
      {"sequence": "RRIRKRPPRLPRPRPRPAMRPRP", "shrunken log2 fold change": 1.33},
      {"sequence": "RRIRQRPPRLPRPRPRPAEIPRP", "shrunken log2 fold change": -0.219},
      {"sequence": "RRIRSRPPRLPRPRPRPFPHPRP", "shrunken log2 fold change": -0.16},
      {"sequence": "RRIRWRPPRLPRPRPRPEFCPRP", "shrunken log2 fold change": 0.335},
      {"sequence": "RRIRVRPPRLPRPRPRPRILPRP", "shrunken log2 fold change": -0.412},
      {"sequence": "RRIRFRPPRLPRPRPRPHKVPRP", "shrunken log2 fold change": -0.196},
      {"sequence": "RRIRPRPPRLPRPRPRPSKMPRP", "shrunken log2 fold change": -0.169},
      {"sequence": "RRIRYRPPRLPRPRPRPFMRPRP", "shrunken log2 fold change": -0.499},
      {"sequence": "RRIRNRPPRLPRPRPRPFVPPRP", "shrunken log2 fold change": -0.263},
      {"sequence": "RRIRKRPPRLPRPRPRPNKSPRP", "shrunken log2 fold change": 0.0234},
      {"sequence": "RRIRARPPRLPRPRPRPSITPRP", "shrunken log2 fold change": 0.107},
      {"sequence": "RRIRFRPPRLPRPRPRPEFFPRP", "shrunken log2 fold change": -0.153},
      {"sequence": "RRIRMRPPRLPRPRPRPANMPRP", "shrunken log2 fold change": -0.203},
      {"sequence": "RRIRVRPPRLPRPRPRPQSQPRP", "shrunken log2 fold change": -0.214},
      {"sequence": "RRIRLRPPRLPRPRPRPYPYPRP", "shrunken log2 fold change": -0.076},
      {"sequence": "RRIRKRPPRLPRPRPRPMTDPRP", "shrunken log2 fold change": 0.103},
      {"sequence": "RRIRYRPPRLPRPRPRPNQMPRP", "shrunken log2 fold change": -0.194},
      {"sequence": "RRIRSRPPRLPRPRPRPRMMPRP", "shrunken log2 fold change": 0.0975},
      {"sequence": "RRIRIRPPRLPRPRPRPKIVPRP", "shrunken log2 fold change": -0.716},
      {"sequence": "RRIRTRPPRLPRPRPRPCIGPRP", "shrunken log2 fold change": -0.0176},
      {"sequence": "RRIRKRPPRLPRPRPRPWGAPRP", "shrunken log2 fold change": 0.449},
      {"sequence": "RRIRFRPPRLPRPRPRPGTPPRP", "shrunken log2 fold change": 0.292},
      {"sequence": "RRIRMRPPRLPRPRPRPLVAPRP", "shrunken log2 fold change": 1.16},
      {"sequence": "RRIRPRPPRLPRPRPRPLHLPRP", "shrunken log2 fold change": -0.311},
      {"sequence": "RRIRIRPPRLPRPRPRPMMSPRP", "shrunken log2 fold change": -0.00118},
      {"sequence": "RRIRARPPRLPRPRPRPTCMPRP", "shrunken log2 fold change": 0.407},
      {"sequence": "RRIRERPPRLPRPRPRPWKVPRP", "shrunken log2 fold change": -0.0109},
      {"sequence": "RRIRWRPPRLPRPRPRPPDPPRP", "shrunken log2 fold change": 0.296},
      {"sequence": "RRIRFRPPRLPRPRPRPAMQPRP", "shrunken log2 fold change": 0.109},
      {"sequence": "RRIRDRPPRLPRPRPRPSHGPRP", "shrunken log2 fold change": -0.0107},
      {"sequence": "RRIRLRPPRLPRPRPRPAEQPRP", "shrunken log2 fold change": 0.0174},
      {"sequence": "RRIRWRPPRLPRPRPRPWACPRP", "shrunken log2 fold change": 0.0611},
      {"sequence": "RRIRSRPPRLPRPRPRPLCQPRP", "shrunken log2 fold change": -0.135},
      {"sequence": "RRIRARPPRLPRPRPRPYITPRP", "shrunken log2 fold change": -0.904},
      {"sequence": "RRIRFRPPRLPRPRPRPEHIPRP", "shrunken log2 fold change": -0.161},
      {"sequence": "RRIRDRPPRLPRPRPRPCKYPRP", "shrunken log2 fold change": 0.0244},
      {"sequence": "RRIRPRPPRLPRPRPRPNTFPRP", "shrunken log2 fold change": -0.0232},
      {"sequence": "RRIRWRPPRLPRPRPRPVQTPRP", "shrunken log2 fold change": 0.459},
      {"sequence": "RRIRGRPPRLPRPRPRPCQQPRP", "shrunken log2 fold change": 0.0696},
      {"sequence": "RRIRTRPPRLPRPRPRPNRAPRP", "shrunken log2 fold change": -0.244},
      {"sequence": "RRIRVRPPRLPRPRPRPVRWPRP", "shrunken log2 fold change": 0.805},
      {"sequence": "RRIRTRPPRLPRPRPRPQNMPRP", "shrunken log2 fold change": -0.654},
      {"sequence": "RRIRCRPPRLPRPRPRPHVNPRP", "shrunken log2 fold change": -0.497},
      {"sequence": "RRIRHRPPRLPRPRPRPDIVPRP", "shrunken log2 fold change": -0.38},
      {"sequence": "RRIRLRPPRLPRPRPRPQIDPRP", "shrunken log2 fold change": 0.0696},
      {"sequence": "RRIRHRPPRLPRPRPRPGPCPRP", "shrunken log2 fold change": -0.254},
      {"sequence": "RRIRLRPPRLPRPRPRPSCWPRP", "shrunken log2 fold change": 0.0662}
    ]}
  ]
}
